Patent US20040014670A1 (AJINOMOTO, published 2004)

Key:
[1] = target: rabbit pulmonal angiotensin converting enzyme (Sigma) (rabbit) (UniProt P12822); assay: cell-based or functional assay
[2] = target: T1, rabbit pulmonal angiotensin converting enzyme (Sigma) (rabbit, UniProt P12822 34-1310, limits assumed); assay: cell-based or functional assay
T1 sequence (looked up): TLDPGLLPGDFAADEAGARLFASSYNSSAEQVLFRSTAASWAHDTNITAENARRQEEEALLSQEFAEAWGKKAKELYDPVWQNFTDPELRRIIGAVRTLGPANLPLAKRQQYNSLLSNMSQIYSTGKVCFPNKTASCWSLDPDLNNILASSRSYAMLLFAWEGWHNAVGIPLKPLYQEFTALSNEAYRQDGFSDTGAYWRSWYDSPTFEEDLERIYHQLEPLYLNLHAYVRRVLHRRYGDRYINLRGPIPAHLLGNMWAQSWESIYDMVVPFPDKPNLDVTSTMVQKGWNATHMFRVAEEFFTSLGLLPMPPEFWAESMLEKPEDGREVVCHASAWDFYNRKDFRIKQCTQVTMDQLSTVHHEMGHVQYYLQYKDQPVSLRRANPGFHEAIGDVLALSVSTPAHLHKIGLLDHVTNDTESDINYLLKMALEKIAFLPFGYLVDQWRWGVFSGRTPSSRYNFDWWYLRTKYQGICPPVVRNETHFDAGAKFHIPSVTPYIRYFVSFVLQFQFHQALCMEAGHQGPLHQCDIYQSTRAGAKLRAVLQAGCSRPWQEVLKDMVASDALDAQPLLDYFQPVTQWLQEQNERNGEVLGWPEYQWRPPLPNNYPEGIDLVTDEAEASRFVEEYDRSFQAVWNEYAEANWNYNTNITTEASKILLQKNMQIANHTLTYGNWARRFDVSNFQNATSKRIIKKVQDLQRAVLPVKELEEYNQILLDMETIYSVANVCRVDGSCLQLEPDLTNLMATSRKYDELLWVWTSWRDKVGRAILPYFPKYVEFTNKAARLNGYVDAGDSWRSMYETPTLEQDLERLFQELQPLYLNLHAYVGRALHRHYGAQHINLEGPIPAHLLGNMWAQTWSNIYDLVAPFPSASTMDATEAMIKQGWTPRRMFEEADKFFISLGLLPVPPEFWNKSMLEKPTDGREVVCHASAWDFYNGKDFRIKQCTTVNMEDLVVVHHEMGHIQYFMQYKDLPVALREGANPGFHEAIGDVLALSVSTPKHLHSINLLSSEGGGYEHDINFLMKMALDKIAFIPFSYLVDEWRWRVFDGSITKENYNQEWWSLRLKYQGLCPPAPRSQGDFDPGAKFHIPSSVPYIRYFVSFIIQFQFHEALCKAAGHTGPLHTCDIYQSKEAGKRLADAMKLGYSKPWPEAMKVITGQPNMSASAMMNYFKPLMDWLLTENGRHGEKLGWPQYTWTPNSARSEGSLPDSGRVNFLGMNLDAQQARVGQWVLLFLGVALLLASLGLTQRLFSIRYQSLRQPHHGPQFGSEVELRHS

Bradykinin potentiator C (peptide)
IC50 (µM), inhibition of angiotensin converting enzyme activity (colorimetry at 505 nm, substrate p-hydroxyl benzoyl glycyl-L-histidyl-L-leucine) [1]: 35 µM

soybean protein hydrolysates prepared with protease D3
IC50 value, the concentration for 50% inhibition against ACE [1]: 180 µg/mL

PNNKPFQ [Pro-Asn-Asn-Lys-Pro-Phe-Gln]
IC50 (µM), inhibition of angiotensin converting enzyme activity (colorimetry at 505 nm, substrate p-hydroxyl benzoyl glycyl-L-histidyl-L-leucine) [2]: 33 µM

NWGPLV [Asn-Trp-Gly-Pro-Leu-Val]
IC50 (µM), inhibition of angiotensin converting enzyme activity (colorimetry at 505 nm, substrate p-hydroxyl benzoyl glycyl-L-histidyl-L-leucine) [2]: 21 µM

IPPGVPYWT [Ile-Pro-Pro-Gly-Val-Pro-Tyr-Trp-Thr]
IC50 (µM), inhibition of angiotensin converting enzyme activity (colorimetry at 505 nm, substrate p-hydroxyl benzoyl glycyl-L-histidyl-L-leucine) [2]: 64 µM
